Assay results taken from patent publication US20240167008, “NOVEL CRISPR ENZYMES, METHODS, SYSTEMS AND USES THEREOF” (Beam Therapeutics Inc., published 2024).

T1: ScoCas9 (human codon-optimized) (Streptococcus constellatus)
T1 chain: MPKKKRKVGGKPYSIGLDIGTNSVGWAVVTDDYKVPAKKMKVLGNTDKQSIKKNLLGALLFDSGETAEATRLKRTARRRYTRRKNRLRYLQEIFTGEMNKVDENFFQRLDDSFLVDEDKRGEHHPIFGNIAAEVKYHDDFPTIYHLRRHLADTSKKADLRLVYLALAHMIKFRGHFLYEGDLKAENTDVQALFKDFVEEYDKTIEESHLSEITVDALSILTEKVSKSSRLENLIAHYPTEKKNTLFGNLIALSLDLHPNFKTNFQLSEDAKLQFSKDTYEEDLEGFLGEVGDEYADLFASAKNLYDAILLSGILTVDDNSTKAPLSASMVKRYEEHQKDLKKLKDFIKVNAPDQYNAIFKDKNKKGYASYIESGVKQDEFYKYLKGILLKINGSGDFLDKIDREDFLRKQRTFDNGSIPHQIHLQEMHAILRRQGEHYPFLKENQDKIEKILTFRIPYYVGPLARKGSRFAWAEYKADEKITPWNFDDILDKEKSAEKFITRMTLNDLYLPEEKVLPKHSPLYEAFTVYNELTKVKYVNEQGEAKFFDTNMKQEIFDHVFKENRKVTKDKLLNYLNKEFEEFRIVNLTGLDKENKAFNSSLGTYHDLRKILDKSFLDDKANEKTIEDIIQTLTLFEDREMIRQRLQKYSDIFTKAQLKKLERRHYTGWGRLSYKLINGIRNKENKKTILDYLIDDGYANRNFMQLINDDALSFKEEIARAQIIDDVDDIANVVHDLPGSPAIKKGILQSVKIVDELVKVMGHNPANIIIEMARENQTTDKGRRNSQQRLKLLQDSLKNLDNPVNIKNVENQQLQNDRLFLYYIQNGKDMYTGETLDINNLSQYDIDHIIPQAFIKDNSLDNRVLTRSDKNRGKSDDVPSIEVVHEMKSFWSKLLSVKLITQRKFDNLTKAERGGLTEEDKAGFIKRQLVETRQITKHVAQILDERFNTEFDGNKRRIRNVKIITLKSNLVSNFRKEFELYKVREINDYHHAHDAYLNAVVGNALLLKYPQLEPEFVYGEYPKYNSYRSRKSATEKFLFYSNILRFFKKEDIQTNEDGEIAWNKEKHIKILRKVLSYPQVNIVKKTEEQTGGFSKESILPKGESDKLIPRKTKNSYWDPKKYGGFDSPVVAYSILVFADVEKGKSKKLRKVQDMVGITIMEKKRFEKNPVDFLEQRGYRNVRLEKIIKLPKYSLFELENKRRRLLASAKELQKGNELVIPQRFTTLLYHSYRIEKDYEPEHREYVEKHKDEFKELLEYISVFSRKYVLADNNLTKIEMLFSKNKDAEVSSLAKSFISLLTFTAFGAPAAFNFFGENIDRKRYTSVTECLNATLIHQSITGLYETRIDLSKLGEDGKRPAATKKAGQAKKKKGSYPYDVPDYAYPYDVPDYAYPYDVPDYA

B1: Sco guide 2 sgRNA ; guide 2 site (ssRNA ; dsDNA)
RNA: GAAACAAUGAUAACAAGACCGUUUUAGAGCUGUGCUGUUUAAACAACACAGCAAGUUAAAAUAAGGCUUUGUCCGUACUCAAGCUUGCAAAAGCGUGCACCGAUUCGGUGCU
DNA 1: GAAACAATGATAACAAGACCTGG
DNA 2: CCAGGTCTTGTTATCATTGTTTC
B2: Sco guide 9 sgRNA ; guide 9 site (ssRNA ; dsDNA)
RNA: GUUGAAGAUGAAGCCCAGAGGUUUUAGAGCUGUGCUGUUUAAACAACACAGCAAGUUAAAAUAAGGCUUUGUCCGUACUCAAGCUUGCAAAAGCGUGCACCGAUUCGGUGCU
DNA 1: GTTGAAGATGAAGCCCAGAGCGG
DNA 2: CCGCTCTGGGCTTCATCTTCAAC
B3: Sco guide 11 sgRNA ; guide 11 site (ssRNA ; dsDNA)
RNA: UGCUGCACACAGCAGGCCUUGUUUUAGAGCUGUGCUGUUUAAACAACACAGCAAGUUAAAAUAAGGCUUUGUCCGUACUCAAGCUUGCAAAAGCGUGCACCGAUUCGGUGCU
DNA 1: TGCTGCACACAGCAGGCCTTTGG
DNA 2: CCAAAGGCCTGCTGTGTGCAGCA

Molecular target: T1, ScoCas9 (human codon-optimized)
Assay: cell_activity; PAM NGG; HEK293T
Details: tags: N-terminal and C-terminal NLS, 3xHA
Experimental: HEK293T cells were plated in a 96-well plate. Cells were transfected with expression vectors containing Cas9 and guide RNAs (Table 10), 24 hours after plating. Cells were harvested 72 hours post-transfection and total DNA was extracted.

| Binder | activity |
| --- | --- |
| B1 | > 30 % indel |
| B2 | > 30 % indel |
| B3 | ~2 % indel |
